Measurements from patent US20250297216A1, “METHOD FOR PRODUCING MILK LIKE PRODUCTS” (SOCIETE DES PRODUITS NESTLE S.A., priority 2021, published 2025).

Tested on: iPSCs derived mammary gland organoids
Experiment: Flow cytometry quantification of mammary gland progenitor markers in 3D iPSC differentiation (42-day and shortened 31-day protocols)
Type: cell-based, human
Conditions: 20 ng/ml BMP4, 1 μM RA, single or combination, 42 days and 31 days protocols, compared to control condition
Source text: Scheme summarizing different procedures for the generation of mammary gland progenitors in 42 days (a), using bone morphogenetic protein 4 (BMP4) (b), retinoic acid (RA) (c), combinations of BMP4 and RA (d) and their combination in shortened time-course (31 days) (e). The red boxes indicate the period of addition of BMP4 and/or RA.

B1: BMP4: bone morphogenetic protein 4, growth factor added to the culture medium (protein, UniProt P12644 293-408, looked up)
Bone morphogenetic protein 4: SPKHHSQRARKKNKNCRRHSLYVDFSDVGWNDWIVAPPGYQAFYCHGDCPFPLADHLNSTNHAIVQTLVNSVNSSIPKACCVPTELSAISMLYLDEYDKVVLKNYQEMVVEGCGCR
expression of mammary gland progenitor markers (EpCAM, CD49f, MUC1, GATA3): can induce the expression of mammary gland progenitor markers
